Source: US20190359711A1
Changes are numbered by the printed parent chain. Blank lines part the entries; values can stand above or below the binder they belong to.

Legend:
[1] = target: CD3 on human pan T cells (human) (UniProt P07766); test: Kd derived from the competition IC50: Kd=IC50/(1+([T]/KdT)); human pan T cells
[2] = target: CD3 on human pan T cells (human) (UniProt P07766); test: flow cytometry competition on human pan T cells; competitor tracer AlexaFluor488 SP34-2 at 16.6 nM

Chain of CD3 on human pan T cells (human) (P07766 23-207 limits assumed): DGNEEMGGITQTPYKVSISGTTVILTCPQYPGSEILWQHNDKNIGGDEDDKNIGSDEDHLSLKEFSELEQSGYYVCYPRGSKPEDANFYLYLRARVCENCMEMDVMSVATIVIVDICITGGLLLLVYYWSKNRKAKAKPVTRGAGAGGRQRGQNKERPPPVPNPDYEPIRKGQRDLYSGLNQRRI

Kd [1]: 103 nM
IC50 [2]: 409 nM
B1: CD3B376 monovalent construct (bispecific antibody, part only; not given: second arm, constant regions, V domains shown, not shown: another chain or arm of the molecule; a dimerising Fc or GST)
VH: QVQLQQSGPRLVRPSQTLSLTCAISGDSVFNNNAAWSWIRQSPSRGLEWLGRTYYRSKWLYDYAVSVKSRITVNPDTSRNQFTLQLNSVTPEDTALYYCARGYSSSFDYWGQGTLVTVSS
VL: QSALTQPASVSGSPGQSITISCTGTSSNIGTYKFVSWYQQHPDKAPKVLLYEVSKRPSGVSSRFSGSKSGNTASLTISGLQAEDQADYHCVSYAGSGTLLFGGGTKLTVL

Kd [1]: 254 nM
IC50 [2]: 1010 nM
B2: CD3B450 monovalent construct (bispecific antibody, part only; not given: second arm, constant regions, V domains shown, not shown: another chain or arm of the molecule; a dimerising Fc or GST)
VH: B1 VH with R10G, R13K, V73I, R79K, T83S, L96V
VL: B1 VL with D43G, L49M, L50I, S62N, Q85E, H89Y
